The source of these data is PMC11812572 (2025).

The target in assay [1] is T1, recombinant human cytoplasmic dynein 1 complex with mEGFP fused to its heavy chain, mEGFP-dynein (human, UniProt Q14204 1-4646; O43237-1 1-492; P63172 1-113; Q9NP97-1 1-96; P63167 1-89). Kind of assay: apparent, from TIRF dynein activation (run frequency); with 14 nM dynactin and 200 nM NuMA^N-term.
The target of assay [2] is T1, recombinant human cytoplasmic dynein 1 …. Nature of the assay: apparent, from TIRF dynein activation (run frequency); with 14 nM dynactin and 100 nM Lis1.

B1: Lis1 (protein)
chain: MVLSQRQRDELNRAIADYLRSNGYEEAYSVFKKEAELDVNEELDKKYAGLLEKKWTSVIRLQKKVMELESKLNEAKEEFTSGGPLGQKRDPKEWIPRPPEKYALSGHRSPVTRVIFHPVFSVMVSASEDATIKVWDYETGDFERTLKGHTDSVQDISFDHSGKLLASCSADMTIKLWDFQGFECIRTMHGHDHNVSSVAIMPNGDHIVSASRDKTIKMWEVQTGYCVKTFTGHREWVRMVRPNQDGTLIASCSNDQTVRVWVVATKECKAELREHEHVVECISWAPESSYSSISEATGSETKKSGKPGPFLLSGSRDKTIKMWDVSTGMCLMTLVGHDNWVRGVLFHSGGKFILSCADDKTLRVWDYKNKRCMKTLNAHEHFVTSLDFHKTAPYVVTGSVDQTVKVWECR
modifications: full-length human Lis1; N-terminal His6-TEV tag (unlabelled construct) or mCherry fusion left out; homodimer by general knowledge, copy number not printed in the text given
On to B1, for which the Kd in assay [1] was 148 nM.

B2: AF546- or AF647-labelled SNAP-tagged human NuMA N-terminal fragment (first 705 aa), NuMA^N-term (domain or fragment)
chain: MTLHATRGAALLSWVNSLHVADPVEAVLQLQDCSIFIKIIDRIHGTEEGQQILKQPVSERLDFVCSFLQKNRKHPSSPECLVSAQKVLEGSELELAKMTMLLLYHSTMSSKSPRDWEQFEYKIQAELAVILKFVLDHEDGLNLNEDLENFLQKAPVPSTCSSTFPEELSPPSHQAKREIRFLELQKVASSSSGNNFLSGSPASPMGDILQTPQFQMRRLKKQLADERSNRDELELELAENRKLLTEKDAQIAMMQQRIDRLALLNEKQAASPLEPKELEELRDKNESLTMRLHETLKQCQDLKTEKSQMDRKINQLSEENGDLSFKLREFASHLQQLQDALNELTEEHSKATQEWLEKQAQLEKELSAALQDKKCLEEKNEILQGKLSQLEEHLSQLQDNPPQEKGEVLGDVLQLETLKQEAATLAANNTQLQARVEMLETERGQQEAKLLAERGHFEEEKQQLSSLITDLQSSISNLSQAKEELEQASQAHGARLTAQVASLTSELTTLNATIQQQDQELAGLKQQAKEKQAQLAQTLQQQEQASQGLRHQVEQLSSSLKQKEQQLKEVAEKQEATRQDHAQQLATAAEEREASLRERDAALKQLEALEKEKAAKLEILQQQLQVANEARDSAQTSVTQAQREKAELSRKVEELQACVETARQEQHEAQAQVAELELQLRSEQQKATEKERVAQEKDQLQEQLQ
modifications: SNAP-tag labelled with SNAP-Surface Alexa Fluor 546 or SNAP-Surface Alexa Fluor 647
With B2, the Kd in assay [2] worked out at 51 nM.
